The source of these data is IntAct's records for PubMed 21447556.

Sequences and labels used below:
B1: Protein argonaute-3 (Drosophila melanogaster (Fruit fly)), Q7PLK0 (parent)
chain: MSGRGNLLSLFNKNAGNMGKSISSKDHEIDSGLDFNNSESSGERLLSSHNIETDLITTLQHVNISVGRGRARLIDTLKTDDHTSNQFITSESKENITKKTKGPESEAIASENGLFFPDLIYGSKGSSVNIYCNYLKLTTDESKGVFNYEVRFFPPIDSVHLRIKYLNDHKDKLGGTKTFDGNTLYLPILLPNKMTVFISKAEDVELQIRILYKKKEEMRNCTQLYNILFDRVMKVLNYVKFDRKQFDPSRPKIIPLAKLEVWPGYVTAVDEYKGGLMLCCDVSHRILCQKTVLEMLVDLYQQNVEHYQESARKMLVGNIVLTRYNNRTYKINDICFDQNPTCQFEIKTGCTSYVEYYKQYHNINIKDVNQPLIYSIKKSRGIPAERENLQFCLIPELCYLTGLRDEVRSDNKLMREIATFTRVSPNQRQMALNKFYENVSNTPAAQEILNSWGLSLTNNSNKISGRQMDIEQIYFSKISVSAGRSAEFSKHAVTNEMLKVVHLSKWIIIHLRNYRQAATSLLDNMKQACESLGMNISNPTMISLDHDRIDAYIQALRRNITMNTQMVVCICHNRRDDRYAAIKKICCSEIPIPSQVINAKTLQNDLKIRSVVQKIVLQMNCKLGGSLWTVKIPFKNVMICGIDSYHDPSNRGNSVAAFVASINSSYSQWYSKAVVQTKREEIVNGLSASFEIALKMYRKRNGKLPTNIIIYRDGIGDGQLYTCLNYEIPQFEMVCGNRIKISYIVVQKRINTRIFSGSGIHLENPLPGTVVDQHITKSNMYDFFLVSQLVRQGTVTPTHYVVLRDDCNYGPDIIQKLSYKLCFLYYNWAGTVRIPACCMYAHKLAYLIGQSIQRDVAEALSEKLFYL
partner: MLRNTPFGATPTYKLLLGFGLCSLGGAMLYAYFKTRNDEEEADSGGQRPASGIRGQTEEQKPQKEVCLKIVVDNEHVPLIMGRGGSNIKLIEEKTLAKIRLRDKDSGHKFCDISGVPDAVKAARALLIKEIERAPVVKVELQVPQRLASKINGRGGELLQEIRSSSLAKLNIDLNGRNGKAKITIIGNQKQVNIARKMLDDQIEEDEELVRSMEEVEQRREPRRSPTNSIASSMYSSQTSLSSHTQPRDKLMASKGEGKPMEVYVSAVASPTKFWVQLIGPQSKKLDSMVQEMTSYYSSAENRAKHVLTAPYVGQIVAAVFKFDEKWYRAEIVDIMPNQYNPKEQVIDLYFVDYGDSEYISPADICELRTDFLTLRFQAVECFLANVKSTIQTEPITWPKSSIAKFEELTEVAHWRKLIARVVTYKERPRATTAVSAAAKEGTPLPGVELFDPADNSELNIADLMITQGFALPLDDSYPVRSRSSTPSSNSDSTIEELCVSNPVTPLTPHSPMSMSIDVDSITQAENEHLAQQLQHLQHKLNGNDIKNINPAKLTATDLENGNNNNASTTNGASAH
B2: Protein piwi (Drosophila melanogaster (Fruit fly)), Q9VKM1 (parent)
chain: MADDQGRGRRRPLNEDDSSTSRGSGDGPRVKVFRGSSSGDPRADPRIEASRERRALEEAPRREGGPTERKPWGDQYDYLNTRPAELVSKKGTDGVPVMLQTNFFRLKTKPEWRIVHYHVEFEPSIENPRVRMGVLSNHANLLGSGYLFDGLQLFTTRKFEQEITVLSGKSKLDIEYKISIKFVGFISCAEPRFLQVLNLILRRSMKGLNLELVGRNLFDPRAKIEIREFKMELWPGYETSIRQHEKDILLGTEITHKVMRTETIYDIMRRCSHNPARHQDEVRVNVLDLIVLTDYNNRTYRINDVDFGQTPKSTFSCKGRDISFVEYYLTKYNIRIRDHNQPLLISKNRDKALKTNASELVVLIPELCRVTGLNAEMRSNFQLMRAMSSYTRMNPKQRTDRLRAFNHRLQNTPESVKVLRDWNMELDKNVTEVQGRIIGQQNIVFHNGKVPAGENADWQRHFRDQRMLTTPSDGLDRWAVIAPQRNSHELRTLLDSLYRAASGMGLRIRSPQEFIIYDDRTGTYVRAMDDCVRSDPKLILCLVPNDNAERYSSIKKRGYVDRAVPTQVVTLKTTKNRSLMSIATKIAIQLNCKLGYTPWMIELPLSGLMTIGFDIAKSTRDRKRAYGALIASMDLQQNSTYFSTVTECSAFDVLANTLWPMIAKALRQYQHEHRKLPSRIVFYRDGVSSGSLKQLFEFEVKDIIEKLKTEYARVQLSPPQLAYIVVTRSMNTRFFLNGQNPPPGTIVDDVITLPERYDFYLVSQQVRQGTVSPTSYNVLYSSMGLSPEKMQKLTYKMCHLYYNWSGTTRVPAVCQYAKKLATLVGTNLHSIPQNALEKKFYYL
partner: B1 partner

One experiment covers variants of B1. Particulars: with tdrkh_drome papi.
Regarding R68K;R70K;R72K, the “effect of a mutation on the interaction” value is on record as “disrupting interaction strength”.

The variants in the next experiment derive from B2. Particulars: with tdrkh_drome papi.
Take R7K;R9K: the “effect of a mutation on the interaction” value is reported as “disrupting interaction strength”.
